Source: publication PMC3488082 (The Journal of Biological Chemistry, 2012)

Biological target: the molecule itself
Test: crystal structure

Protein | stoichiometry N
Human aldehyde dehydrogenase-2 (ALDH2), wild-type (enzyme, thionitrate adduct on Cys-302 (GTN-soaked crystal)) SAAATQAVPAPNQQPEVFCNQIFINNEWHDAVSRKTFPTVNPSTGEVICQVAEGDKEDVDKAVKAARAAFQLGSPWRRMDASHRGRLLNRLADLIERDRTYLAALETLDNGKPYVISYLVDLDMVLKCLRYYAGWADKYHGKTIPIDGDFFSYTRHEPVGVCGQIIPWNFPLLMQAWKLGPALATGNVVVMKVAEQTPLTALYVANLIKEAGFPPGVVNIVPGFGPTAGAAIASHEDVDKVAFTGSTEIGRVIQVAAGSSNLKRVTLELGGKSPNIIMSDADMDWAVEQAHFALFFNQGQCCCAGSRTFVQEDIYDEFVERSVARAKSRVVGNPFDSKTEQGPQVDETQFKKILGYINTGKQEGAKLLCGGGIAADRGYFIQPTVFGDVQDGMTIAKEEIFGPVMQILKFKTIEEVVGRANNSTYGLAAAVFTKDLDKANYLSQALQAGTVWVNCYDVFGAQSPFGGYKMSGSGRELGEYGLQAYTEVKTVTVKVPQKNS | 4
Human aldehyde dehydrogenase-2 (ALDH2) triple mutant E268Q/C301S/C303S (enzyme) SAAATQAVPAPNQQPEVFCNQIFINNEWHDAVSRKTFPTVNPSTGEVICQVAEGDKEDVDKAVKAARAAFQLGSPWRRMDASHRGRLLNRLADLIERDRTYLAALETLDNGKPYVISYLVDLDMVLKCLRYYAGWADKYHGKTIPIDGDFFSYTRHEPVGVCGQIIPWNFPLLMQAWKLGPALATGNVVVMKVAEQTPLTALYVANLIKEAGFPPGVVNIVPGFGPTAGAAIASHEDVDKVAFTGSTEIGRVIQVAAGSSNLKRVTLQLGGKSPNIIMSDADMDWAVEQAHFALFFNQGQSCSAGSRTFVQEDIYDEFVERSVARAKSRVVGNPFDSKTEQGPQVDETQFKKILGYINTGKQEGAKLLCGGGIAADRGYFIQPTVFGDVQDGMTIAKEEIFGPVMQILKFKTIEEVVGRANNSTYGLAAAVFTKDLDKANYLSQALQAGTVWVNCYDVFGAQSPFGGYKMSGSGRELGEYGLQAYTEVKTVTVKVPQKNS | 4
